Measurements from publication PMC2151085 (PLoS Pathogens, 2007).

B1: ALV-A Env transmembrane subunit (TM), on virus particles (natural protein)
chain: STSHLDDTCSDEVQLWGPTARIFASILAPGVARAQALREIERLACWSVKQANLTTSFLGDLLDDVTSIRHAVLQNRAAIDFLLLAHGHGCEDVAGMCCFNLSDHSESIQKKFQLMKEHVNKIGVDSDPIGSWLRGLFGGIGEWAVHLLKGLLLGLVVILLLVVCLPCLLQIVCGNIRKMINNSISYHTEYKKLQKACGQPESRIV

How the values were obtained:
[1] = molecular target: ALV-A Env surface subunit (SU), wild type, on virus particles (avian leukosis virus-A (ALV-A)) (UniProt P0DTM4)
Sequence of ALV-A Env surface subunit (SU), wild type, on virus particles (avian leukosis virus-A (ALV-A)) (P0DTM4 63-401): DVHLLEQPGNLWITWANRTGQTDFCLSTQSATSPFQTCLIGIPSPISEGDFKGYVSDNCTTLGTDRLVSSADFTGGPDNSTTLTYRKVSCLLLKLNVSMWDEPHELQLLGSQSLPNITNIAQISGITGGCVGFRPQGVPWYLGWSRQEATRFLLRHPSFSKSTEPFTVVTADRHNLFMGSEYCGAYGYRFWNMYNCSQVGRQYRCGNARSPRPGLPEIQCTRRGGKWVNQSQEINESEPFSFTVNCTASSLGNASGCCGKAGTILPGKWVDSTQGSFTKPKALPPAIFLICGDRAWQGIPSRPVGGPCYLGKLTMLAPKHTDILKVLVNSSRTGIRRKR

[2] = molecular target: the molecule itself; test: SDS-resistant oligomer by SDS-PAGE and immunoblot

Row | Molecule | infection of 293-Tva cells by ALV-A particles exposed to PMB (10 mM) in the presence of sTva (10 uM) [1] [%] | stoichiometry N [2]
1 | sTva, a functional isoform of the ALV-A receptor lacking the transmembrane domain | > 99 | 
2 | B1 |  | 3
